In paper PMC9458438 one finds binding signal data, which are given here for one molecule.

Where two headings read alike, the source gives them in different places.

Data set [1] has as its target T1, ParB-eGFP (Spo0J) (Bacillus subtilis, UniProt P26497 1-282).
T1 sequence: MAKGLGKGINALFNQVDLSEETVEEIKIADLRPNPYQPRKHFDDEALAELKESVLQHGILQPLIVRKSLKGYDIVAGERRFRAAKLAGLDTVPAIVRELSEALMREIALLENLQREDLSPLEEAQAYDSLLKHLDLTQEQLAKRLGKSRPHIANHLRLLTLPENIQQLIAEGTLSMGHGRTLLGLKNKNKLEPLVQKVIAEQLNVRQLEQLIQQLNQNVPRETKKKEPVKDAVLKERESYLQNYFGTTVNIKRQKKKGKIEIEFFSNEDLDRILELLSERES
Description: single-molecule colocalization with lambda DNA.

Data set [2] concerns the target T1, ParB-eGFP (Spo0J). Description: single-molecule colocalization with lambda DNA. This is another data set of the same source.

B1: ns-oligo-Cy5 (58 bp) (dsDNA)
DNA 1: CGAAGGCTACGTCCAGGAGCGCACCATCTTCTTCAAGGACGACGGCAACTACAAGACC
DNA 2: GGTCTTGTAGTTGCCGTCGTCCTTGAAGAAGATGGTGCGCTCCTGGACGTAGCCTTCG
Take B1: the binding signal was ~2 fold shorter lifetime than parS-oligo with ParB-eGFP (Spo0J) [1] and ~3 fold fewer multimer-oligo complexes than parS-oligo with ParB-eGFP (Spo0J) [2].
